From publication PMC10819241
Read-outs that look alike come from different tables or passages of the source.

Key:
[1] = molecular target: CTB-DV1EDIII (after TEV cleavage of hRID-CTB-DV1EDIII) (not stated | dengue virus serotype 1 (DenKor-07 strain)) (UniProt P01556)
[2] = molecular target: CTB-DV1EDIII (after TEV cleavage of hRID-CTB-DV1EDIII) (not stated | dengue virus serotype 1 (DenKor-07 strain)) (UniProt P01556); test: SEC
[3] = molecular target: CTB-DV1EDIII (after TEV cleavage of hRID-CTB-DV1EDIII) (not stated | dengue virus serotype 1 (DenKor-07 strain)) (UniProt P01556); test: SDS-PAGE without DTT and boiling (native SDS-PAGE)

Measured: stoichiometry N

CTB-DV1EDIII (after TEV cleavage of hRID-CTB-DV1EDIII) (from UniProt P01556 22-124)
5: all assays above
